# In patent CN112125972A (SINOCELLTECH LTD, dated 2020):
# T1: HPV45 VLP (Human papillomavirus type 45, UniProt P36741 27-539)
# T1 construct: also called HPV45完整VLP蛋白
# T1 sequence: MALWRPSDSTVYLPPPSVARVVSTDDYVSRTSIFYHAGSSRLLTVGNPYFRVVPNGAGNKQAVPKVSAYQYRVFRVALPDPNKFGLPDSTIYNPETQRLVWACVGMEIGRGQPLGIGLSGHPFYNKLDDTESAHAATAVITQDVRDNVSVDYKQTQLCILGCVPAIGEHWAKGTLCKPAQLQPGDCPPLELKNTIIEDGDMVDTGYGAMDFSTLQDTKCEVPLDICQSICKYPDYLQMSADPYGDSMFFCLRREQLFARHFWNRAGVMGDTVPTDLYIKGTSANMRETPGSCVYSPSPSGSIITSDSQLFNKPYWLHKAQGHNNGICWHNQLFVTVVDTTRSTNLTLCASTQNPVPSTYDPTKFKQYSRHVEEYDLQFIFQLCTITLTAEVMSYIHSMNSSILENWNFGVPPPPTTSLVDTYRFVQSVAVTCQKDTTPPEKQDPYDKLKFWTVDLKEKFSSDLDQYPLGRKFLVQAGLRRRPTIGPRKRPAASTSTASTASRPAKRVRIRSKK
# T2: HPV51 VLP (Human papillomavirus type 51, UniProt P26536 1-504)
# T2 construct: also called HPV51完整VLP蛋白
# T2 sequence: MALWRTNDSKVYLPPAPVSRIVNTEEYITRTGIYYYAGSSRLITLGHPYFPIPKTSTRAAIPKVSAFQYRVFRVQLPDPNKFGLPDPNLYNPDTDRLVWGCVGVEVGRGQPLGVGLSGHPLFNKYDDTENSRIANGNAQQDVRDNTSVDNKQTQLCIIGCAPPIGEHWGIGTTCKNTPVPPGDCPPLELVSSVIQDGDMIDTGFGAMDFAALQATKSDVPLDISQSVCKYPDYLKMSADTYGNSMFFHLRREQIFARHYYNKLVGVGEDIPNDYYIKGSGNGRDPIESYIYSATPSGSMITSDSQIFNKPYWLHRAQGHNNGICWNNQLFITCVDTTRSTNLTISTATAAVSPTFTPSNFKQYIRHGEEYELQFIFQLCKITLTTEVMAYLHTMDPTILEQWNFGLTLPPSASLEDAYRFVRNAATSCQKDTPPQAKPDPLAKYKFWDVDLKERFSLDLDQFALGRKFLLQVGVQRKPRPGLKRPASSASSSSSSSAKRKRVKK
# T3: HPV56 VLP (Human papillomavirus type 56, UniProt P36743 36-534)
# T3 construct: also called HPV56完整VLP蛋白
# T3 sequence: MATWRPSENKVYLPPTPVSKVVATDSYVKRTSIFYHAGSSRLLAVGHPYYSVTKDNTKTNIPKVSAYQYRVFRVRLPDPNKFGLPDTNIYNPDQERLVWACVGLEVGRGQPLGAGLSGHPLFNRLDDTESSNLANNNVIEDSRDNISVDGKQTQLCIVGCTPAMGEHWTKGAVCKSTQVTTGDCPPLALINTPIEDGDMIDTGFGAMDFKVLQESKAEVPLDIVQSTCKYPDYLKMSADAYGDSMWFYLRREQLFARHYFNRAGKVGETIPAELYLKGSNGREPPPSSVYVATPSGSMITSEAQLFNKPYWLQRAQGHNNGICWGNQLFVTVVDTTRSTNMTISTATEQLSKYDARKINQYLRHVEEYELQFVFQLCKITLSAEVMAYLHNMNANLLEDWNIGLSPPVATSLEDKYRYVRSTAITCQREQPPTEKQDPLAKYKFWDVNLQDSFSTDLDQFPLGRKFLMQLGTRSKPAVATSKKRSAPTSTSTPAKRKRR
# T4: HPV58 VLP (Human papillomavirus type 58, UniProt P26535 27-524)
# T4 construct: also called HPV58完整VLP蛋白
# T4 sequence: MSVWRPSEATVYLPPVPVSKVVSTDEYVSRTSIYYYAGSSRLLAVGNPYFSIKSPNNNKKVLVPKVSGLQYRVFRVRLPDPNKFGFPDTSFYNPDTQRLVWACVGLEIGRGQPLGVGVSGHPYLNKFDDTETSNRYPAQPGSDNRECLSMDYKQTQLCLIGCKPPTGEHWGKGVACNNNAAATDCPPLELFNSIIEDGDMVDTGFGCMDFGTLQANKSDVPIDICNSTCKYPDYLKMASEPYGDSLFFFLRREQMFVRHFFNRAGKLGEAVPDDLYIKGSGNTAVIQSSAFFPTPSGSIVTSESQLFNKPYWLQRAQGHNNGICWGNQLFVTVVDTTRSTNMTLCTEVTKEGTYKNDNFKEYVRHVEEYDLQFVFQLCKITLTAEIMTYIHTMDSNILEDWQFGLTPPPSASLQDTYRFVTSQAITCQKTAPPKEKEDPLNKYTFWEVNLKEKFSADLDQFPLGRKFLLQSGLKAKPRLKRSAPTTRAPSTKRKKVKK
# T5: HPV39 VLP (Human papillomavirus type 39, UniProt P24838 1-505)
# T5 construct: also called HPV39完整VLP蛋白
# T5 sequence: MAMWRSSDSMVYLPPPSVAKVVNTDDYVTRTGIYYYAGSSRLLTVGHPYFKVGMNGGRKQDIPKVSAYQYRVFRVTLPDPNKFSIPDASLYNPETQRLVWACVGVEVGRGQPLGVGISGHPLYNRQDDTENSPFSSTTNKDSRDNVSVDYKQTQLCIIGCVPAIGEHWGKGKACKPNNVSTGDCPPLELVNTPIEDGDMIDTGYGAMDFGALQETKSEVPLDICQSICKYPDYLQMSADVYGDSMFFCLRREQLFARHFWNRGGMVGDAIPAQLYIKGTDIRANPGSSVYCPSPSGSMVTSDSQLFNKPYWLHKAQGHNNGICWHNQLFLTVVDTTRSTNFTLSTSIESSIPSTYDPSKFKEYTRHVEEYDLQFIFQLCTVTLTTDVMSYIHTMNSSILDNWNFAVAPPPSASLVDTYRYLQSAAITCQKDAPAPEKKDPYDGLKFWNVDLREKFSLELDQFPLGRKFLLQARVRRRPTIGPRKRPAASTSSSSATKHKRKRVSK
# Assays:
# Test in all cases: indirect ELISA, VLP coated at 2 μg/mL, antibody at 10 ng/mL
# HPV45 VLP = target: T1, HPV45 VLP
# HPV51 VLP = target: T2, HPV51 VLP
# HPV56 VLP = target: T3, HPV56 VLP
# HPV58 VLP = target: T4, HPV58 VLP
# HPV59 VLP = target: T6, HPV59 VLP (Human papillomavirus type 59)
# T6 construct: also called HPV59完整VLP蛋白
# HPV39 VLP = target: T5, HPV39 VLP
binder,measurement,setting,value
"HPV 16 R001 (antibody, V domains shown, An HRP-labelled form served as detection antibody in the sandwich ELISA; also called HPV16.001; 单克隆抗体HPV 16 R001) VH: QSVKESEGRLVTPGTPLTLTCTASGFTMSRYHMTWVRQAPGKGLEWIGIIYARNSDTYYANWAKGRFTISKTSTTVDLKITSPTIEDTATYFCARVDSDSSGAFDRLDLWGQGTLVTVSS VL: DPMLTQTAASVEVAVGGTVTIKCQASQSIGGYLSWYQQKPGQRPKLLIYRASTLASGVPSRFKGSGSGTEYTLTFSGVECADAAAYYCQQGYTSSDINNAFGGGTEVVVK",OD450-blank,HPV45 VLP,0.002 OD450
same,OD450-blank,HPV51 VLP,0.001 OD450
same,OD450-blank,HPV56 VLP,0.003 OD450
same,OD450-blank,HPV58 VLP,0.003 OD450
same,OD450-blank,HPV59 VLP,0 OD450
same,OD450-blank,HPV39 VLP,0.004 OD450
